Values of other authors as cited in patent publication US20060084109.

Biological target: T1, Formamidopyrimidine glycosylase (Fpg, MutM) (Escherichia coli) (UniProt P05523)
T1 sequence: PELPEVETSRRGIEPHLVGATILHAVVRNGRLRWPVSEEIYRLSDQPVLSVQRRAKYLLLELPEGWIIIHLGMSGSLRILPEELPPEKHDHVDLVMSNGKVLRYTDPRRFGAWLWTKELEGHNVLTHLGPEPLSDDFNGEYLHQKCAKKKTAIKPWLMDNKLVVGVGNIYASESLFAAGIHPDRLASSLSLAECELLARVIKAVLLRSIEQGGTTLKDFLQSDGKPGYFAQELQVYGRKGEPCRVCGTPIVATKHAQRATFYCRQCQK
Experiment: cleavage_in_vitro
Settings: 8-oxo-dG at position 10, cytidine opposite in complementary strand; CITED Vuyisich and Beal 2002; product from 20 nM substrate, 1 nM Fpg, 7 min, room temperature, no inhibitor

Sequence: TCATGGGTCNTCGGTATA (double strand) [Fpg 18-mer 8-oxo-dG substrate duplex]
- activity: 2 nM
